Assay results published in patent US20120108796A1 (Bayer, published 2012).

molecular target: T1, recombinant TFPI of the FXa restoring assay (human, mouse or rat; species not stated for Tables 9 and 10); experiment: cell-based or functional assay

| Binder | IC 50, FXa restoring assay | Improvement of IC50 vs 2A8wt | Improvement of IC50 vs 4B7wt |
| --- | --- | --- | --- |
| 2A8 wild-type Fab (Fab, V domains shown) VH: QVQLVESGGGLVQPGGSLRLSCAASGFTFRSYGMSWVRQAPGKGLEWVSSIRGSSSSTYYADSVKGRFTISRDNSKNTLYLQMNSLRAEDTAVYYCARKYRYWFDYWGQGTLVTVSS VL: DIELTQPPSVSVAPGQTARISCSGDNLRNYYAHWYQQKPGQAPVVVIYYDNNRPSGIPERFSGSNSGNTATLTISGTQAEDEADYYCQSWDDGVPVFGGGTKLTVLG | 0.7 µg/mL | 1 fold |  |
| 2A8 HC I51E (Fab, V domains shown) VH: QVQLVESGGGLVQPGGSLRLSCAASGFTFRSYGMSWVRQAPGKGLEWVSSERGSSSSTYYADSVKGRFTISRDNSKNTLYLQMNSLRAEDTAVYYCARKYRYWFDYWGQGTLVTVSS VL: DIELTQPPSVSVAPGQTARISCSGDNLRNYYAHWYQQKPGQAPVVVIYYDNNRPSGIPERFSGSNSGNTATLTISGTQAEDEADYYCQSWDDGVPVFGGGTKLTVLG | 0.76 µg/mL | 0.9 fold |  |
| 2A8 HC S31V (Fab, V domains shown) VH: QVQLVESGGGLVQPGGSLRLSCAASGFTFRVYGMSWVRQAPGKGLEWVSSIRGSSSSTYYADSVKGRFTISRDNSKNTLYLQMNSLRAEDTAVYYCARKYRYWFDYWGQGTLVTVSS VL: DIELTQPPSVSVAPGQTARISCSGDNLRNYYAHWYQQKPGQAPVVVIYYDNNRPSGIPERFSGSNSGNTATLTISGTQAEDEADYYCQSWDDGVPVFGGGTKLTVLG | 0.201 µg/mL | 3.5 fold |  |
| 2A8 HC K99V (Fab, V domains shown) VH: QVQLVESGGGLVQPGGSLRLSCAASGFTFRSYGMSWVRQAPGKGLEWVSSIRGSSSSTYYADSVKGRFTISRDNSKNTLYLQMNSLRAEDTAVYYCARVYRYWFDYWGQGTLVTVSS VL: DIELTQPPSVSVAPGQTARISCSGDNLRNYYAHWYQQKPGQAPVVVIYYDNNRPSGIPERFSGSNSGNTATLTISGTQAEDEADYYCQSWDDGVPVFGGGTKLTVLG | 0.39 µg/mL | 1.6 fold |  |
| 2A8 HC S31P (Fab, V domains shown) VH: QVQLVESGGGLVQPGGSLRLSCAASGFTFRPYGMSWVRQAPGKGLEWVSSIRGSSSSTYYADSVKGRFTISRDNSKNTLYLQMNSLRAEDTAVYYCARKYRYWFDYWGQGTLVTVSS VL: DIELTQPPSVSVAPGQTARISCSGDNLRNYYAHWYQQKPGQAPVVVIYYDNNRPSGIPERFSGSNSGNTATLTISGTQAEDEADYYCQSWDDGVPVFGGGTKLTVLG | 0.33 µg/mL | 1.7 fold |  |
| 2A8 LC D91K (Fab, V domains shown) VH: QVQLVESGGGLVQPGGSLRLSCAASGFTFRSYGMSWVRQAPGKGLEWVSSIRGSSSSTYYADSVKGRFTISRDNSKNTLYLQMNSLRAEDTAVYYCARKYRYWFDYWGQGTLVTVSS VL: DIELTQPPSVSVAPGQTARISCSGDNLRNYYAHWYQQKPGQAPVVVIYYDNNRPSGIPERFSGSNSGNTATLTISGTQAEDEADYYCQSWKDGVPVFGGGTKLTVLG | 0.34 µg/mL | 1.9 fold |  |
| 2A8 HC S54F (Fab, V domains shown) VH: QVQLVESGGGLVQPGGSLRLSCAASGFTFRSYGMSWVRQAPGKGLEWVSSIRGFSSSTYYADSVKGRFTISRDNSKNTLYLQMNSLRAEDTAVYYCARKYRYWFDYWGQGTLVTVSS VL: DIELTQPPSVSVAPGQTARISCSGDNLRNYYAHWYQQKPGQAPVVVIYYDNNRPSGIPERFSGSNSGNTATLTISGTQAEDEADYYCQSWDDGVPVFGGGTKLTVLG | 0.35 µg/mL | 2 fold |  |
| 2A8 HC S35D (Fab, V domains shown) VH: QVQLVESGGGLVQPGGSLRLSCAASGFTFRSYGMDWVRQAPGKGLEWVSSIRGSSSSTYYADSVKGRFTISRDNSKNTLYLQMNSLRAEDTAVYYCARKYRYWFDYWGQGTLVTVSS VL: DIELTQPPSVSVAPGQTARISCSGDNLRNYYAHWYQQKPGQAPVVVIYYDNNRPSGIPERFSGSNSGNTATLTISGTQAEDEADYYCQSWDDGVPVFGGGTKLTVLG | 0.55 µg/mL | 1.1 fold |  |
| 2A8 LC Y48F (Fab, V domains shown) VH: QVQLVESGGGLVQPGGSLRLSCAASGFTFRSYGMSWVRQAPGKGLEWVSSIRGSSSSTYYADSVKGRFTISRDNSKNTLYLQMNSLRAEDTAVYYCARKYRYWFDYWGQGTLVTVSS VL: DIELTQPPSVSVAPGQTARISCSGDNLRNYYAHWYQQKPGQAPVVVIFYDNNRPSGIPERFSGSNSGNTATLTISGTQAEDEADYYCQSWDDGVPVFGGGTKLTVLG | 0.34 µg/mL | 1.9 fold |  |
| 2A8 LC D91W (Fab, V domains shown) VH: QVQLVESGGGLVQPGGSLRLSCAASGFTFRSYGMSWVRQAPGKGLEWVSSIRGSSSSTYYADSVKGRFTISRDNSKNTLYLQMNSLRAEDTAVYYCARKYRYWFDYWGQGTLVTVSS VL: DIELTQPPSVSVAPGQTARISCSGDNLRNYYAHWYQQKPGQAPVVVIYYDNNRPSGIPERFSGSNSGNTATLTISGTQAEDEADYYCQSWWDGVPVFGGGTKLTVLG | 0.23 µg/mL | 3 fold |  |
| 2A8 LC D91L (Fab, V domains shown) VH: QVQLVESGGGLVQPGGSLRLSCAASGFTFRSYGMSWVRQAPGKGLEWVSSIRGSSSSTYYADSVKGRFTISRDNSKNTLYLQMNSLRAEDTAVYYCARKYRYWFDYWGQGTLVTVSS VL: DIELTQPPSVSVAPGQTARISCSGDNLRNYYAHWYQQKPGQAPVVVIYYDNNRPSGIPERFSGSNSGNTATLTISGTQAEDEADYYCQSWLDGVPVFGGGTKLTVLG | 0.37 µg/mL | 1.7 fold |  |
| 2A8 HC K99L (Fab, V domains shown) VH: QVQLVESGGGLVQPGGSLRLSCAASGFTFRSYGMSWVRQAPGKGLEWVSSIRGSSSSTYYADSVKGRFTISRDNSKNTLYLQMNSLRAEDTAVYYCARLYRYWFDYWGQGTLVTVSS VL: DIELTQPPSVSVAPGQTARISCSGDNLRNYYAHWYQQKPGQAPVVVIYYDNNRPSGIPERFSGSNSGNTATLTISGTQAEDEADYYCQSWDDGVPVFGGGTKLTVLG | 0.181 µg/mL | 3.9 fold |  |
| 4B7 wild-type Fab (Fab, V domains shown) VH: QVQLQQSGPGLVKPSQTLSLTCAISGDSVSSNSAAWSWIRQSPGRGLEWLGIIYKRSKWYNDYAVSVKSRITINPDTSKNQFSLQLNSVTPEDTAVYYCARWHSDKHWGFDYWGQGTLVTVSS VL: DIVMTQSPLSLPVTPGEPASISCRSSQSLVFSDGNTYLNWYLQKPGQSPQLLIYKGSNRASGVPDRFSGSGSGTDFTLKISRVEAEDVGVYYCQQYDSYPLTFGQGTKVEIKR | 1.46 µg/mL |  | 1 fold |
| 4B7 HC D62R (Fab, V domains shown) VH: QVQLQQSGPGLVKPSQTLSLTCAISGDSVSSNSAAWSWIRQSPGRGLEWLGIIYKRSKWYNRYAVSVKSRITINPDTSKNQFSLQLNSVTPEDTAVYYCARWHSDKHWGFDYWGQGTLVTVSS VL: DIVMTQSPLSLPVTPGEPASISCRSSQSLVFSDGNTYLNWYLQKPGQSPQLLIYKGSNRASGVPDRFSGSGSGTDFTLKISRVEAEDVGVYYCQQYDSYPLTFGQGTKVEIKR | 0.058 µg/mL |  | 25 fold |

molecular target: T1, recombinant TFPI of the FXa restoring …; experiment: cell-based or functional assay; remark: another data set of the same source

| Binder | EC50, FXa restoring assay | Improvement of EC50 vs 2A8 wt |
| --- | --- | --- |
| 2A8 wild-type Fab (Fab, V domains shown) VH: QVQLVESGGGLVQPGGSLRLSCAASGFTFRSYGMSWVRQAPGKGLEWVSSIRGSSSSTYYADSVKGRFTISRDNSKNTLYLQMNSLRAEDTAVYYCARKYRYWFDYWGQGTLVTVSS VL: DIELTQPPSVSVAPGQTARISCSGDNLRNYYAHWYQQKPGQAPVVVIYYDNNRPSGIPERFSGSNSGNTATLTISGTQAEDEADYYCQSWDDGVPVFGGGTKLTVLG | 7.91 nM | 1 fold |
| 2A8-143 (Fab, V domains shown) VH: QVQLVESGGGLVQPGGSLRLSCAASGFTFRSYGMDWVRQAPGKGLEWVSSIRGSRSSTYYADSVKGRFTISRDNSKNTLYLQMNSLRAEDTAVYYCARLYRYWFDYWGQGTLVTVSS VL: DIELTQPPSVSVAPGQTARISCSGDNLRNYYAHWYQQKPGQAPVVVIFYDVNRPSGIPERFSGSNSGNTATLTISGTQAEDEADYYCQSWLDGVPWFGGGTKLTVLG | 0.5 nM | 15.8 fold |
| 2A8-127 (Fab, V domains shown) VH: QVQLVESGGGLVQPGGSLRLSCAASGFTFRSYGMDWVRQAPGKGLEWVSSIRGSSSSTYYADSVKGRFTISRDNSKNTLYLQMNSLRAEDTAVYYCARLYRYWFDYWGQGTLVTVSS VL: DIELTQPPSVSVAPGQTARISCSGDNLRNYYAHWYQQKPGQAPVVVIFYDVNRPSDIPERFSGSNSGNTATLTISGTQAEDEADYYCQSWDDGVPWFGGGTKLTVLG | 0.44 nM | 18.2 fold |
| 2A8-216 (Fab, V domains shown) VH: QVQLVESGGGLVQPGGSLRLSCAASGFTFRVYGMSWVRQAPGKGLEWVSSDRGSRSSTYYADSVKGRFTISRDNSKNTLYLQMNSLRAEDTAVYYCARVYRYWFDYWGQGTLVTVSS VL: DIELTQPPSVSVAPGQTARISCSGDNLRNYYAHWYQQKPGQAPVVVIFYDNNRPSGIPERFSGSNSGNTATLTISGTQAEDEADYYCQSWLDGVPWFGGGTKLTVLG | 1.08 nM | 7.3 fold |
| 2A8-200 (Fab, V domains shown) VH: QVQLVESGGGLVQPGGSLRLSCAASGFTFRSYGMDWVRQAPGKGLEWVSSIRGSRSSTYYADSVKGRFTISRDNSKNTLYLQMNSLRAEDTAVYYCARLYRYWFDYWGQGTLVTVSS VL: DIELTQPPSVSVAPGQTARISCSGDNLRNYYAHWYQQKPGQAPVVVIFYDVNRPSGIPERFSGSNSGNTATLTISGTQAEDEADYYCQSWWDGVPVFGGGTKLTVLG | 0.81 nM | 9.7 fold |
| 2A8 HC K99L (Fab, V domains shown) VH: QVQLVESGGGLVQPGGSLRLSCAASGFTFRSYGMSWVRQAPGKGLEWVSSIRGSSSSTYYADSVKGRFTISRDNSKNTLYLQMNSLRAEDTAVYYCARLYRYWFDYWGQGTLVTVSS VL: DIELTQPPSVSVAPGQTARISCSGDNLRNYYAHWYQQKPGQAPVVVIYYDNNRPSGIPERFSGSNSGNTATLTISGTQAEDEADYYCQSWDDGVPVFGGGTKLTVLG | 1 nM | 7.9 fold |
